Broadly, the Kd is a measure of binding affinity in units of concentration. Low readings indicate a tighter complex, high ones a looser complex. Broadly, the koff is the first-order rate constant of dissociation. For orientation: kon means the rate constant with which the complex forms. Higher therefore signals fast association.

The values that follow come from patent US20250206841A1 (ADEPT THERAPEUTICS, published 2025).

One experiment concerns the target T1, human Trop-2-His protein (human, UniProt P09758 27-274).
T1 construct: extracellular domain; Assay paragraphs say only 'Trop-2-His'; also called hTrop-2; Kactus Cat #TRP-HM121; not shown: His tag
T1 sequence (looked up): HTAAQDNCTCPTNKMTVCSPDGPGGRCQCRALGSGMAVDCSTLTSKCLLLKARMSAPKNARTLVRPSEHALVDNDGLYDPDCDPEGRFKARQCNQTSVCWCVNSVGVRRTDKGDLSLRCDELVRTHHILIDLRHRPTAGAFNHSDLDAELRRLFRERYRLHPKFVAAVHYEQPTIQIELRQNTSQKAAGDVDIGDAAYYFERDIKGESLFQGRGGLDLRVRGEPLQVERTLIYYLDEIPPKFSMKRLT
The experiment can be described thus: BLI (Gator Prime), LEM supernatant Ab on HFC probe. The method, then: (§1) After three times of regeneration and neutralization of HFC probe (Gator, Cat #160003), LEM transfection supernatant samples to be tested in K buffer was diluted 1:1 in K buffer and immobilized onto HFC probe. […] The association and dissociation of human or cynomolgus Trop-2-His antigen from antibody was measured on BLI machine Gator Prime. Affinity was calculated using Gator Bio analysis software. Blank control was used for reference subtraction. 1 μg/ml of Sacituzumab govitecan was used as positive control.
(§2) Table 23 below summarizes the binding affinity of exemplary anti-Trop-2 antibodies in LEM transfection supernatant samples to human and cynomolgus Trop-2 using Gator.

Experiment [1] concerns the target T2, cynomolgus Trop-2-His protein (cynomolgus, UniProt P09758 27-274 (human entry)).
T2 construct: also called cynmolgus Trop-His; Kactus Cat #TRP-CM121; not shown: His tag
T2 chain: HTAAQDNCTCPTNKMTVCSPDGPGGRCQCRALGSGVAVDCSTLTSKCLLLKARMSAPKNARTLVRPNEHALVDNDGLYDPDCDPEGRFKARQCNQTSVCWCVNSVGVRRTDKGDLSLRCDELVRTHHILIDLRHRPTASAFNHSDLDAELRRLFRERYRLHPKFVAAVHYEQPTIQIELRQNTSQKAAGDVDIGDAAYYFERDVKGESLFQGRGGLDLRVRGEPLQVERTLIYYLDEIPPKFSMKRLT
Kind of experiment: BLI (Gator Prime), LEM supernatant Ab on HFC probe. The method, then: as §1, §2

B1: 69H10 (antibody, V domains shown)
VH: QEQLKESGGGLVQPGGSLKLSCKASGFDFNKYGVSWVRQAPGKGLEWIAYIYPAFHNTYYATWVNGRFTISSHNAQNTLYLQLNTLTAADTATYFCARDAGTTDYNFNLWGPGTLVTVSS
VL: DVVMTQTASPVSAAVGGTVTIKCQASQSIYSYLSWYQQKPGQPPKLLIYEASKLASGVSSRFSGSGYGTEFTLTISGVECADAATYYCQQALTVGNVDNPFGGGSEVVVK
notes: Rabbit-derived clone; LEM construct: VH + rabbit IgG CH1 + human IgG1 CH2-CH3
For the molecule B1, in the experiment with human Trop-2-His protein, the Kd is 0.989 nM, the koff was found to be 0.00046 s⁻¹ and the on-rate constant (kon) was found to be 465000 M⁻¹ s⁻¹. In addition, in experiment [1], the Kd was determined as 0.893 nM, the koff was found to be 0.00053 s⁻¹ and the kon stood at 592000 M⁻¹ s⁻¹.

B2: 3E9 (antibody, V domains shown)
VH: QEQLKESGGGLVQPGGSLKLSCKASGFDFNNYGVSWVRQAPGKGLEWIAYIYPAFHNRYYANWVNGRFTISSDNAQNTVYLQLNSLTAADTATYFCARDAGSTDYKFNLWGPGTLVTVSS
VL: DVVMTQTPASVSAAVGGTVTIKCQASEDIESYLAWYQQKPGQPPKLLIYDASTLASGVSSRFSGSGYGTEFTLTISGVECADAATYYCQQDLTVGNVDNPFGGGSEVVVE
notes: as for B1
In the case of B2, in the experiment with human Trop-2-His protein, the Kd amounted to 0.675 nM, the koff worked out at 0.00038 s⁻¹ and the on-rate constant (kon) was determined as 568000 M⁻¹ s⁻¹. Also, in experiment [1], the affinity, expressed as Kd, was 0.538 nM; the off-rate (koff) amounted to 0.00038 s⁻¹; the kon was 888000 M⁻¹ s⁻¹.

B3: 3A4 (antibody, V domains shown)
VH: QEQLVESGGGLVQPGGSLTLSCKGSGFDFNEYGVSWVRQAPGKGLEWIAYIYPAFHNTYYATWVNGRFTISSHNAQNTLYLQLHTLTAADTATYFCARDAGTTDYNFNLWGPGTLVTVSS
VL: DVVMTQTPASVSAAVGGTVSINCQASEDIENYLAWYQQKPGQPPKLLIYEASKLASGVSSRFSGSGYGTEFTLTISGVECADAATYYCQQALTIGNVDNPFGGGSEVVVK
notes: as for B1
In the experiment with human Trop-2-His protein, B3 came in with a Kd of 1.38 nM, a koff of 0.00069 s⁻¹ and an on-rate constant (kon) of 500000 M⁻¹ s⁻¹. Further, in experiment [1], binding was put at a Kd of 1.17 nM, the koff amounted to 0.00069 s⁻¹ and the kon worked out at 729000 M⁻¹ s⁻¹.

B4: 62A10 (antibody, V domains shown)
VH: QSLVESGGGLVQPEGSLTLTCKASGFDFNNYAVTWVRQAPGEGLEYIGFIGIRGHIYYANWAKGRFTISKTSSTTMTLQMTSLTVADTATYFCARGGLWTGNSYFDLWGPGTLVTVSS
VL: YDMTQTPASVEVAVGGTVTINCQASESISRYLAWYQQKPGQSPKPLIYRASTLASGVPSRFQGSGSGTEYTLTISDLECADAATYYCQQGYGYSTVDNAFGGGTEVVVK
notes: as for B1
Turning to B4, in the experiment with human Trop-2-His protein, the Kd is 0.959 nM, the koff came out at 0.00051 s⁻¹ and the kon was determined as 532000 M⁻¹ s⁻¹. In experiment [1], this molecule came in with a Kd of 1.27 nM, a koff of 0.00092 s⁻¹ and a kon of 726000 M⁻¹ s⁻¹.

B5: 71F10 (antibody, V domains shown)
VH: QSLEESGGGLVQPGASLTLTCTVSGFDFSSNAMTWVRQAPGEGLEYIGFIGIRGNIYYANWAKGRFTISKTSSTTVTLQMTSLTVADTATYFCARGGLWTGNSYFDLWGPGTLVTVSS
VL: YDMTQTPASVSAAVGGTVTINCQASESISRYLAWYQQKPGQPPKPLIYRASTLASGVPSRFKGSGTGTDYTLTISDLECADAATYYCQQGYGYSTVGNAFGGGTEVVVK
notes: as for B1
For B5, in the experiment with human Trop-2-His protein, binding was characterised by a dissociation constant (Kd) of 0.696 nM, the koff was determined as 0.00032 s⁻¹ and the kon is 459000 M⁻¹ s⁻¹. In experiment [1], this molecule returned a Kd of 0.755 nM, a koff of 0.00054 s⁻¹ and a kon of 721000 M⁻¹ s⁻¹.

B6: 70E2 (antibody, V domains shown)
VH: QSLEESGGGLVKPGGTLTLTCTVSGFDFSNYAMTWVRQAPGKGLEYIGFIGIRGNIYYANWAKGRFTISKTSSTTVTLQMTSLTVADTATYFCARGGLWTGNSYFDLWGPGTLVTVSS
VL: YDMTQTPASVEVPVGGTVTINCQASENINRYLAWYQQKPGQPPKPLIYRAATLASGVPSRFKGSGSGTEYTLSISDLECADAATYYCQQGYGYSTVGNAFGGGTEVVVK
notes: as for B1
B6: in the experiment with human Trop-2-His protein, the equilibrium dissociation constant (Kd) stood at 0.871 nM, the koff was 0.00038 s⁻¹ and the on-rate constant (kon) stood at 430000 M⁻¹ s⁻¹. Moreover, in experiment [1], the Kd was 0.892 nM, the koff was 0.00059 s⁻¹ and the kon was 657000 M⁻¹ s⁻¹.

B7: 73C2 (antibody, V domains shown)
VH: QSLEESGGGLVKPGGTLTLTCTVSGFDFSNYAVTWVRQAPGEGLEYIGFVGIYGDFYYANWAKGRFTISKTSSTTVTLQMPSLTVADTATYFCARGGLWTGNSYFDLWGPGTLVTVSS
VL: YDMTQTPASVEVAVGGTVTINCQASESINRYLAWYQQKRGQPPKPLIYRAATLASGVPSRFKGSGSGTEYTLTISDLECADAATYYCQQGYGYSTVGNAFGGGTEVVVK
notes: as for B1
As for B7, in the experiment with human Trop-2-His protein, binding was characterised by a dissociation constant (Kd) of 3.85 nM, the koff was determined as 0.0011 s⁻¹ and the kon is 284000 M⁻¹ s⁻¹. In addition, in experiment [1], binding was put at a Kd of 4.63 nM, the koff amounted to 0.0017 s⁻¹ and the kon worked out at 364000 M⁻¹ s⁻¹.
